From patent US20250257332A1, “TRUNCATED AND FUSION PROTEINS” (Monash University, priority 2021, published 2025)
Entries after “also recorded” stand apart in the source; their conditions may differ.

Legend:
[1] = test system: C2C12 myoblasts; experiment: C2C12 myoblast proliferation by EdU incorporation; format: cell-based, mouse; conditions: exogenously added factor vs control
Experimental: FIG. 2. […] In vitro assay assessing the effects of exogenously introduced factors on C2C12 myoblast proliferation. Proliferation is identified by EdU incorporation. […] Mean+S.D. Two-way ANOVA with Tukey's multiple comparison test. […] Mean±SEM
The mouse muscle cell line C2C12 (Yaffe, D. & Saxel, O. Serial passaging and differentiation of myogenic cells isolated from dystrophic mouse muscle. Nature 270, 725 (1977) were cultured in growth media (Dulbecco's Modified Eagle Medium (4.5 g/l D-Glucose, No L Glutamine, No Sodium Pyruvate (Gibco))+20% Fetal Bovine Solution-One Shot (Gibco)+1% Glut Max 100×(Gibco)). Cells were maintained at 37° C., 5% CO2. Cells at 70% confluence, passage 8 were extracted from T75 flasks with 0.025% Tryspin EDTA (Gibco), neutralised in growth media, spun at 180×g for 5 min to pellet cells. The cells were then resuspended in 10 ml of fresh growth media. 500 μl of cells were plated on a 8-well on cover glass II (Sarstedt) chamber slide at a density of 1×10^3 cells/ml. Cells were left 4 h at 37° C. to re-attach. For drug treatments, the media were supplemented with appropriate doses and cultured for 6 h.

[2] = test system: Human primary endothelial cells derived from umbilical vein; experiment: Human primary endothelial cell proliferation, CyQuant; format: cell-based; conditions: 20 nM; 48 hours
Experimental: (§1) FIG. 9. Human NAMPT variants stimulate human endothelial cell proliferation. Human primary endothelial cells derived from umbilical vein were treated with 20 nM full length NAMPT (NAMPT) or NAMPT variants (NAMPTxxx-xxx, where xxx are amino acid numbers) for 48 hours. Quantification of cell proliferation was performed using CyQuant Proliferation Assay kit. […] Treatment with 10% FBS was used as a positive control. Box and whiskers denote median with minimum and maximum values. n=6 independent experiments per protein. Statistical significance is indicated as p-value and determined by one-sample t-test.
Similarly, the inventors next investigated the activity of full length NAMPT, NAMPT402-491 and NAMPT422-491 on human endothelial cell proliferation. Human endothelial cells were derived from umbilical vein and treated with 20 nM full length NAMPT (NAMPT) or NAMPT variants for 48 hours.

[3] = test system: C2C12 murine myoblast cells; experiment: C2C12 cell proliferation, CyQuant Proliferation Assay kit; format: cell-based, mouse; conditions: 20 nM, 48 hours, compared with full-length NAMPT
Experimental: FIG. 7. Human NAMPT variants stimulate muscle progenitor proliferation. C2C12 mouse myoblasts were treated with 20 nM full length NAMPT (NAMPT) or NAMPT variants for (NAMPTxxx-xxx, where xxx are amino acid numbers) 48 hours. Quantification of cell proliferation was performed using CyQuant Proliferation Assay kit. […] Box and whiskers denote median with minimum and maximum values. n=4-5 independent experiments per protein. Statistical significance is indicated as exact p-value. […] Significance between conditions were analysed by one-way ANOVA with Tukey post-hoc test.
Human NAMPTcif (hNAMPTcif) and truncated variants of hNAMPTcif were designed by progressively removing N-terminal regions containing positively charged amino acids. Four truncations were produced and numbered T1 to T4. Recombinant protein was produced using a bacterial expression system. hNAMPTcif variants were purified by FPLC using His-tag affinity purification. Cell proliferation assays were performed using C2C12 murine myoblast cells treated with purified recombinant hNAMPTcif variants, as well as full length NAMPT. Cells were treated with 10 nM of recombinant protein for 48 hours in DMEM supplemented with 2% foetal bovine serum at 37° C., 5% CO2. PBS treatment was used as a negative control. 10% foetal bovine serum was used as positive control. Quantification of proliferation was performed using commercially-available CyQuant Proliferation Assay kit (Thermo Fisher Scientific) according to manufacturer's instructions and read using a Synergy H1 plate reader (BioTek). Data were presented as percentage increase versus.
The heparin-binding sequence of placenta growth factor 2 (PIGF2) was fused to the N-terminus of NAMPTcif and produced using a bacterial expression system. PIGF-NAMPTcif was purified by FPLC using His-tag affinity purification followed by size exclusion chromatography. Cell proliferation assays were performed using C2C12 murine myoblast cells treated with purified recombinant NAMPTcif and full length NAMPT. Cells were treated with 2 nM, 10 nM and 20 nM concentrations of recombinant protein for 48 hours in DMEM supplemented with 2% foetal bovine serum at 37° C., 5% CO2. PBS treatment was used as a negative control. 10% foetal bovine serum was used as positive control. Quantification of proliferation was performed using commercially-available CyQuant Proliferation Assay kit (Thermo Fisher Scientific) according to manufacturer's instructions and read using a Synergy H1 plate reader (BioTek). Data were presented as percentage increase versus negative control. A two-tailed unpaired t-test was used to determine statistical significance.

[4] = test system: Human primary satellite cells; experiment: Human primary satellite cell proliferation, CyQuant; format: cell-based; conditions: 20 nM; 48 hours; media with IGF-1 and FGF-2
Experimental: as §1, with “8.” for “9.”, “satellite” for “endothelial”, “cells” for “cells derived from umbilical vein”, “hours. The media contained the growth factors IGF-1 and FGF-2 as well.” for “hours.”, “20%” for “10%”, “n=6-10” for “n=6”
The inventors next sought to compare the activity of full length NAMPT, NAMPT402-491 and NAMPT422-491 on human satellite cell proliferation. Human primary satellite cells were treated with 20 nM full length NAMPT (NAMPT) or NAMPT402-491 and NAMPT422-491 for 48 hours.

[5] = test system: needle-stab muscle injury in zebrafish larvae; experiment: Larval zebrafish muscle injury and EdU pulse-chase; format: in vivo; conditions: 57 nM in Ringer's solution immediately after injury at 4 dpf; EdU at 2 dpi
Experimental: Zebrafish larvae (4 dpf) were anaesthetized in 0.01% tricaine (MS-222) (Sigma-Aldrich) in Ringer's solution. Needle-stab injury was carried out in the dorsal myotome, consisting in a single 30-gauge needle puncture that generates an extensive injury with many damaged muscle fibres. Nampt fragment treatments were carried out by incubating 4 dpf needle-stab-injured larvae in 57 nM Nampt in Ringer's solution immediately after injury. Needle-stab-injured larvae at 6 dpf (2 dpi) were transferred into Ringer's solution containing 50 μg ml-1 EdU (Thermo Fisher Scientific) for 1 h and chased for a further 1.5 h before fixation. Samples were developed using the Click-iT EdU Alexa Fluor 647 imaging Kit (Thermo Fisher Scientific) following the manufacturer's protocol, followed by a phalloidin immunostaining (Thermo Fisher Scientific). EdU+ cells in a region encompassing two myotomes on either side of the injury were quantified as the number of EdU+ cells outside the injury region. EdU+ cells in the caudal haematopoietic tissue were excluded from this analysis. Statistical analysis has been conducted using Two-way ANOVA with Tuckey's multiple comparison test.

Molecule	myoblast proliferation (EdU incorporation), factor alone [1]	cell proliferation, percentage increase vs PBS-treated control [3]	other results
hrNAMPT(1): Commercially available human recombinant NAMPT source 1 (Peprotech); used in the mouse injury model (protein) PPNTSKVYSYFECREKKTENSKLRKVKYEETVFYGLQYILNKYLKGKVVTKEKIQEAKDVYKEHFQDDVFNEKGWNYILEKYDGHLPIEIKAVPEGFVIPRGNVLFTVENTDPECYWLTNWIETILVQSWYPITVATNSREQKKILAKYLLETSGNLDGLEYKLHDFGYRGVSSQETAGIGASAHLVNFKGTDTVAGLALIKKYYGTKDPVPGYSVPAAEHSTITAWGKDHEKDAFEHIVTQFSSVPVSVVSDSYDIYNACEKIWGEDLRHLIVSRSTQAPLIIRPDSGNPLDTVLKVLEILGKKFPVTENSKGYKLLPPYLRVIQGDGVDINTLQEIVEGMKQKMWSIENIAFGSGGGLLQKLTRDLLNCSFKCSYVVTNGLGINVFKDPVADPNKRSKKGRLSLHRTPAGNFVTLEEGKGDLEEYGQDLLHTVFKNGKVTKSYSFDEIRKNAQLNIELEAAHH	dose dependent increase in myoblast proliferation; also recorded: comparable and significant dose dependent increases in myoblast proliferation	–	–
hrNAMPT(2): Second commercially available human recombinant NAMPT protein source (protein) MNPAAEAEFNILLATDSYKVTHYKQYPPNTSKVYSYFECREKKTENSKLRKVKYEETVFYGLQYILNKYLKGKVVTKEKIQEAKDVYKEHFQDDVFNEKGWNYILEKYDGHLPIEIKAVPEGFVIPRGNVLFTVENTDPECYWLTNWIETILVQSWYPITVATNSREQKKILAKYLLETSGNLDGLEYKLHDFGYRGVSSQETAGIGASAHLVNFKGTDTVAGLALIKKYYGTKDPVPGYSVPAAEHSTITAWGKDHEKDAFEHIVTQFSSVPVSVVSDSYDIYNACEKIWGEDLRHLIVSRSTQAPLIIRPDSGNPLDTVLKVLEILGKKFPVTENSKGYKLLPPYLRVIQGDGVDINTLQEIVEGMKQKMWSIENIAFGSGGGLLQKLTRDLLNCSFKCSYVVTNGLGINVFKDPVADPNKRSKKGRLSLHRTPAGNFVTLEEGKGDLEEYGQDLLHTVFKNGKVTKSYSFDEIRKNAQLNIELEAAHH	dose dependent increase in myoblast proliferation; also recorded: comparable and significant dose dependent increases in myoblast proliferation	–	–
CCL8/MCP-2: canonical CCR5 ligand (protein, UniProt Q9Z121 24-97, looked up) C-C motif chemokine 8: GPDKAPVTCCFHVLKLKIPLRVLKSYERINNIQCPMEAVVFQTKQGMSLCVDPTQKWVSEYMEILDQKSQILQP	could be recapitulated	–	myoblast proliferation (EdU incorporation), factor alone ([1]; listed as mrCCL8): functioned to enhance C2C12 proliferation
CCL4/MIP-1β: canonical CCR5 ligand (protein, UniProt P14097 24-92, looked up) C-C motif chemokine 4: APMGSDPPTSCCFSYTSRQLHRSFVMDYYETSSLCSKPAVVFLTKRGRQICANPSEPWVTEYMSDLELN	could be recapitulated	–	myoblast proliferation (EdU incorporation), factor alone ([1]; listed as mrCCL4): functioned to enhance C2C12 proliferation
NAMPT422-491: Truncated hNAMPTcif, residues 422-491 of full length NAMPT, SEQ ID NO: 6 (His-tagged: SEQ ID NO: 7) (protein) NKRSKKGRLSLHRTPAGNFVTLEEGKGDLEEYGQDLLHTVFKNGKVTKSYSFDEIRKNAQLNIELEAAHH	–	highest cellular proliferation compared to all NAMPT variants tested; also recorded: statistically significant increase in proliferation	endothelial cell proliferation, percentage increase vs PBS-treated control [2]: still stimulated endothelial cell proliferation above negative control; satellite cell proliferation, percentage increase vs PBS-treated control [4]: even greater satellite cell proliferation compared to both full length NAMPT and NAMPT402-491; cell proliferation (EdU-positive cells) within the injury zone [5]: significant increase in cell proliferation within the injury zone; also recorded: significantly higher levels as compared to human recombinant-NAMPT (hrNAMPT)
NAMPT414-491: Truncated hNAMPTcif, residues 414-491 of full length NAMPT, SEQ ID NO: 4 (His-tagged: SEQ ID NO: 5) (protein) FKDPVADPNKRSKKGRLSLHRTPAGNFVTLEEGKGDLEEYGQDLLHTVFKNGKVTKSYSFDEIRKNAQLNIELEAAHH	–	enhanced cellular proliferation compared to full-length NAMPT	–
NAMPT430-491: Truncated hNAMPTcif, residues 430-491 of full length NAMPT, SEQ ID NO: 8 (His-tagged: SEQ ID NO: 9) (protein) LSLHRTPAGNFVTLEEGKGDLEEYGQDLLHTVFKNGKVTKSYSFDEIRKNAQLNIELEAAHH	–	enhanced cellular proliferation compared to full-length NAMPT	–
